Tests used:
[1] = molecular target: T1, human C2 I320A (human, UniProt P06681 21-752); experiment: SPR, antibody captured, C2 as analyte;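 further: biacore at 37 °C, anti-C2 mAbs held by immobilised goat anti-human IgG, C2 alanine or serine mutants injected, double-referenced sensorgrams fitted to a 1:1 kinetic or steady-state model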
T1 sequence: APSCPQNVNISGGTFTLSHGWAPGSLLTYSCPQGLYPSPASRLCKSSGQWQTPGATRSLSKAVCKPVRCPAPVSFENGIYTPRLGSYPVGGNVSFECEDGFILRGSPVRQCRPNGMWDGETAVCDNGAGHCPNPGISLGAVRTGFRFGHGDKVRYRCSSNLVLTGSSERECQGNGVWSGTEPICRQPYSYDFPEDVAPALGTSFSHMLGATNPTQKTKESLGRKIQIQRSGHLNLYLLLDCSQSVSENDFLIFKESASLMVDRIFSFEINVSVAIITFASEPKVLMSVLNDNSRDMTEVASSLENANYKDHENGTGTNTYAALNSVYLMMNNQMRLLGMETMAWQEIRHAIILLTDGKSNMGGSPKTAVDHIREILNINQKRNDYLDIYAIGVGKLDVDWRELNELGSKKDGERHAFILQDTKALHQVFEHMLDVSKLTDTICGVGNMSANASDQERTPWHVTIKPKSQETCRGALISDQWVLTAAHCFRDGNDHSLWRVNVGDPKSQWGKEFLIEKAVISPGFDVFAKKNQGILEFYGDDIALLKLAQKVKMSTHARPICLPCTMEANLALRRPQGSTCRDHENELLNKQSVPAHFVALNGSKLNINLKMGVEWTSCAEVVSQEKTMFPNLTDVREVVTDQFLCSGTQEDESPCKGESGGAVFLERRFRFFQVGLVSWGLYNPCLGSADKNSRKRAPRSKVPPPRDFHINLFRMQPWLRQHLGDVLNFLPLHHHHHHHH
Procedure: (§1) Surface plasmon resonance (SPR, Biacore) was used for all binding affinity analyses. In brief, goat anti-human IgG was directly immobilised onto the carboxymethyl dextran surface of CM5 sensorchips to approximately 12,000 RU using standard NHS/EDC chemistry at pH 5. The immobilised antibody surface was pre-conditioned with ten injections of polyclonal human IgG (Privigen 60 s) prepared at 1 μg/mL. Ligands (anti-C2 mAbs) were captured at the beginning of each cycle as described below. An adjacent spot or flow cell in which only Polyclonal IgG was capture was used as a reference surface. The goat anti-human IgG Fc antibody surface was regenerate in 100 mM H3PO4, injected for 45 seconds at the end of each cycle. Experiments were performed at 37° C. and the flow rate of each experiment was kept constant at 30 μL/min.
(§2) Sensogram data was double-referenced against a reference anti-IgG surface (i.e. minus anti-C2 mAb) and blank buffer injections obtained within each experiment. The binding data was fit to 1:1 (kinetic or steady-state) model using local Rmax and null refraction index (RI=0) when appropriate. Buffers and solutions were filtered (0.22 μm) prior to use.

[2] = molecular target: T2, human C2 N403A (human, UniProt P06681 21-752); experiment: SPR, antibody captured, C2 as analyte;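 further: biacore at 37 °C, anti-C2 mAbs held by immobilised goat anti-human IgG, C2 alanine or serine mutants injected, double-referenced sensorgrams fitted to a 1:1 kinetic or steady-state model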
T2 sequence: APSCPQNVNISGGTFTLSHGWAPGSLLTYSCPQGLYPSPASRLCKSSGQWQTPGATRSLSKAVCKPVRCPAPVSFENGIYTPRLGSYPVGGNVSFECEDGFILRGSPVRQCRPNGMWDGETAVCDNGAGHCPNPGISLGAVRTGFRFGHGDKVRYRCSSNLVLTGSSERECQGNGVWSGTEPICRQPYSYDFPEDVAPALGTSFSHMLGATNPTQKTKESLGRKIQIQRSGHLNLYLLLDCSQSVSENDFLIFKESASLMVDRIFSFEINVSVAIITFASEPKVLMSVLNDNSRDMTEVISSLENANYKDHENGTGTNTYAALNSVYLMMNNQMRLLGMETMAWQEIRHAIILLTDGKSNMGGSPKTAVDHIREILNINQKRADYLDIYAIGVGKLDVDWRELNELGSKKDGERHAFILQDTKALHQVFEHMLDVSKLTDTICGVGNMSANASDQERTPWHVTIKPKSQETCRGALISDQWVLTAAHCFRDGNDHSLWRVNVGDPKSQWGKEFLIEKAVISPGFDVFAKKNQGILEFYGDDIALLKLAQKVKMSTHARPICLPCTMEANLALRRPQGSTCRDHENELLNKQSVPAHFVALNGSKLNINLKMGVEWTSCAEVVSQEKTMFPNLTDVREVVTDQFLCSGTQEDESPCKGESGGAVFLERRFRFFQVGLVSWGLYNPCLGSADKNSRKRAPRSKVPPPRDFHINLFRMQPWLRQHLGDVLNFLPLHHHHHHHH
Procedure: as §1, §2

[3] = molecular target: T3, human complement C2 (human, UniProt P06681 21-752); experiment: SPR, mAb captured, C2 analyte, HBS-EP, pH 7.3
T3 construct: Recombinant full-length human C2 with C-terminal 8x His tag, purified from Expi293F supernatant; also called human C2; huC2
T3 sequence: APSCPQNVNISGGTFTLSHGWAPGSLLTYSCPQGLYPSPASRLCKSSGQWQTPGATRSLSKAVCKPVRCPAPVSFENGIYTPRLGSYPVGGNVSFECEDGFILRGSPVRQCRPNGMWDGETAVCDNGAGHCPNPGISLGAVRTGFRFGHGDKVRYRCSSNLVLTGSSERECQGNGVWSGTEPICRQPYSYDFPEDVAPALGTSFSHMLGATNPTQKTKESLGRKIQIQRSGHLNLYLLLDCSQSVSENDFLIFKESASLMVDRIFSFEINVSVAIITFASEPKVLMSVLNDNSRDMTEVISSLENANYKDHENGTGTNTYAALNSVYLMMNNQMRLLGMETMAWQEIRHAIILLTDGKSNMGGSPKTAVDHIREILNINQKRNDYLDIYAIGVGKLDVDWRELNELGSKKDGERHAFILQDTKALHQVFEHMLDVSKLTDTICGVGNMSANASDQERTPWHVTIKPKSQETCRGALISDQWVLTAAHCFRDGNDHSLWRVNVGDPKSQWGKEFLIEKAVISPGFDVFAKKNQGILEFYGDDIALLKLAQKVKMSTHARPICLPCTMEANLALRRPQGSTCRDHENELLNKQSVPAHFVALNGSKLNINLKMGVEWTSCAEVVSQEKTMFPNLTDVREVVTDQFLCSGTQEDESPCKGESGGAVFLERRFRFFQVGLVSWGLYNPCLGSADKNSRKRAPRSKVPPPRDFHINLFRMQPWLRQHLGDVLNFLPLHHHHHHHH
Procedure: as §1
The pH dependent anti-C2 antibodies and their germlined versions were tested for their affinity to C2 at pH 7.3 (neutral pH) and pH 6.0 (early endosome pH) using the SPR methods described above in HBS-EP buffer.

[4] = molecular target: T3, human complement C2; experiment: SPR, mAb captured, huC2 analyte, pH 6
[5] = molecular target: T4, human FcRn/β2m (human, UniProt P55899 24-297; P61769 21-119); experiment: SPR, antibody immobilised, FcRn/β2m analyte, pH 6.0; pH 6.0
T4 construct: Soluble FcRn/β2m injected as analyte over immobilised antibody; also called neonatal Fc receptor
T4 sequence (P55899 24-297 limits assumed, chain 1 of 2): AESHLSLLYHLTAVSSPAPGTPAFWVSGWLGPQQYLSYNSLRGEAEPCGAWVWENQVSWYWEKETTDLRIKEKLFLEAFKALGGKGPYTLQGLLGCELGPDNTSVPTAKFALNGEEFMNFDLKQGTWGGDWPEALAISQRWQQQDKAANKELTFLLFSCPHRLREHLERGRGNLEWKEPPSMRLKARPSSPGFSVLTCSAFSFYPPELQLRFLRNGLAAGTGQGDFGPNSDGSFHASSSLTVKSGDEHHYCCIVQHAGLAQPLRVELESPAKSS
T4 sequence (P61769 21-119 limits assumed, chain 2 of 2): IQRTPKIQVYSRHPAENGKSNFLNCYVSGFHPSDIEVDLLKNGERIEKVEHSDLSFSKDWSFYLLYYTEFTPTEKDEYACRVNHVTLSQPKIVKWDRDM
Procedure: Anti-C2 mAbs (1 μg/mL at pH 5) were immobilized on a carboxylmethyldextran (CM5) sensorchip surface using standard EDC/NHS chemistry. Human and Cyno FcRn/β2m (40 μM) were prepared in running buffer (10 mM HEPES, 150 mM NaCl, 10 mM MES adjusted to either pH 6 or pH 7.3) and injected on the immobilized anti-C2 surface at concentrations ranging from 0.078 to 40 μM, prepared in two-fold dilutions in running buffer. Association and dissociation phases were monitored for 180 and 600 seconds, respectively. […] Double referenced sensorgrams were fitted to either a 1:1 kinetic model (pH 6), including a term for mass transport limitation or to a 1:1 steady state model (pH 7.3) where responses at the end of the association phase were plotted against respective concentrations.
Binding to both human and cynomolgus monkey FcRn was tested using the SPR methods described above.

B1: RF16-242 (antibody, human IgG4 S228P, lambda, V domains shown)
VH: EVQLLQSGAEVKKPGESLKISCKGSGYSFTSYWIGWVRQMPGKGLEWMGIIYPGDSDTRYSPSFQGQVTISADKSISTAYLQWSSLKASDTAMYYCARRGHYGDYFDYWGQGTLVTVSS
VL: SYELTQPPSVSVSPGQTARITCSGDALPKKYAYWYHQKSGQAPVLVIYEDRRRPSEIPERFSGSSSGTMATLTITGAQVEDEGVYFCYSRDRAGNQRVFGGGTQLTVLG
notes: pH-dependent anti-C2 antibody from a phage display library
Kd [1]: 73.5 nM
Kd [2]: 8.2 nM

B2: RF16-214 (antibody, V domains shown)
VH: EVQLLESGGGLVQPGGSLRLSCAASGFTFSWYQMMWVRQAPGKGLEWVSRIYPSGGGTAYADSVKGRFTISRDNSKNTLYLQMNSLRAEDTAVYYCARDAGYGDNWGQGTLVTVSS
VL: QSALTQPPSVSVSPGQTASITCSGDKLGEKYASWYQQKAGQSPVMVIYQDRKRPSGIPERFSGSNSGNTATLTISGTQAMDEADYYCQAWDTRAVVFGGGTKLTVLG
Kd [3]: 31 nM

B3: RF16-226 (antibody)
heavy: not shown
light: SYELTQPPSVSVSPGQTARITCSGDALTSKYVAWYQQKSGLAPLLVIYEDTRRPSGIPAKFSGSSSGSVATLTISGAHGDDEADYYCYSTDASGHQRVFGGGTKLTVLSQPKAAPSVTLFPPSSEELQANKATLVCLISDFYPGAVTVAWKADGSPVKAGVETTKPSKQSNNKYAASSYLSLTPEQWKSHRSYSCQVTHEGSTVEKTVAPTECS
Kd [4]: ~80 nM
Kd [3]: 11.6 nM

B4: RF16-226 (antibody, human IgG4 S228P, lambda)
heavy: not shown
light: SYELTQPPSVSVSPGQTARITCSGDALTSKYVAWYQQKSGLAPLLVIYEDTRRPSGIPAKFSGSSSGSVATLTISGAHGDDEADYYCYSTDASGHQRVFGGGTKLTVLSQPKAAPSVTLFPPSSEELQANKATLVCLISDFYPGAVTVAWKADGSPVKAGVETTKPSKQSNNKYAASSYLSLTPEQWKSHRSYSCQVTHEGSTVEKTVAPTECS
notes: pH-dependent anti-C2 antibody from a phage display library; also called WT
Kd [5]: 3800 nM

From US20220332804A1 (CSL INNOVATION, published 2022)
